{
  "source": "patent US20250152729A1",
  "about": "(CANCER RESEARCH TECHNOLOGY, published 2025)",
  "binders": {"B1": {"name": "5Hg4-5Lg5 human Alya IgG1 (antibody, V domains shown)", "VH": "QVQLVQSGSELKKPGASVKVSCKASGYTFTDYWMHWVRQAPGQGLEWMGAIDTSDSYTSYNQKFKGRFVFSLDTSVSTAYLQICSLKAEDTAVYYCARDYGNFYYYAMDYWGQGTLVTVSS", "VL": "QSVVTQPPSVSGAPGQRVTISCRSSTGAVTTSNYANWYQQLPGTAPKLLIYGTNNRAPGVPDRFSGSKSGASASLAITGLQAEDEADYYCALWYSNHWVFGGGTKLTVL", "notes": "Humanised 5E3; human IgG1 Alya constant (239iCys, S442C, EU), lambda light chain; purified, unconjugated"}, "B2": {"name": "5Hg4-5Lg4 human Alya IgG1 (antibody, V domains shown)", "VH": "QVQLVQSGSELKKPGASVKVSCKASGYTFTDYWMHWVRQAPGQGLEWMGAIDTSDSYTSYNQKFKGRFVFSLDTSVSTAYLQICSLKAEDTAVYYCARDYGNFYYYAMDYWGQGTLVTVSS", "VL": "QSALTQPPSVSGSPGQSVTISCRSSTGAVTTSNYANWYQQPPGTAPKLMIYGTNNRAPGVPDRFSGSKSGNTASLTISGLQAEDEADYYCALWYSNHWVFGGGTKLTVL", "notes": "as for B1"}, "B3": {"name": "5Hg2-5Lg1 human Alya IgG1 (antibody, V domains shown)", "VH": "QVQLVQSGAEVKKPGASVKVSCKASGYTFTDYWMHWVRQAPGQRLEWMGAIDTSDSYTSYNQKFKGRVTITRDTSASTAYMELSSLRSEDTAVYYCARDYGNFYYYAMDYWGQGTLVTVSS", "VL": "QAVVTQEPSLTVSPGGTVTLTCRSSTGAVTTSNYANWFQQKPGQAPRTLIYGTNNRAPWTPARFSGSLLGGKAALTLSGAQPEDEAEYYCALWYSNHWVFGGGTKLTVL", "notes": "as for B1"}, "B4": {"name": "5Hg2-5Lg3 human Alya IgG1 (antibody, V domains shown)", "VH": "QVQLVQSGAEVKKPGASVKVSCKASGYTFTDYWMHWVRQAPGQRLEWMGAIDTSDSYTSYNQKFKGRVTITRDTSASTAYMELSSLRSEDTAVYYCARDYGNFYYYAMDYWGQGTLVTVSS", "VL": "QTVVTQEPSFSVSPGGTVTLTCRSSTGAVTTSNYANWYQQTPGQAPRTLIYGTNNRAPGVPDRFSGSILGNKAALTITGAQADDESDYYCALWYSNHWVFGGGTKLTVL", "notes": "as for B1"}, "B5": {"name": "5Hg4-5Lg1 human Alya IgG1 (antibody, V domains shown)", "VH": "QVQLVQSGSELKKPGASVKVSCKASGYTFTDYWMHWVRQAPGQGLEWMGAIDTSDSYTSYNQKFKGRFVFSLDTSVSTAYLQICSLKAEDTAVYYCARDYGNFYYYAMDYWGQGTLVTVSS", "VL": "QAVVTQEPSLTVSPGGTVTLTCRSSTGAVTTSNYANWFQQKPGQAPRTLIYGTNNRAPWTPARFSGSLLGGKAALTLSGAQPEDEAEYYCALWYSNHWVFGGGTKLTVL", "notes": "as for B1"}, "B6": {"name": "5Hg2-5Lg2 human Alya IgG1 (antibody, V domains shown)", "VH": "QVQLVQSGAEVKKPGASVKVSCKASGYTFTDYWMHWVRQAPGQRLEWMGAIDTSDSYTSYNQKFKGRVTITRDTSASTAYMELSSLRSEDTAVYYCARDYGNFYYYAMDYWGQGTLVTVSS", "VL": "QAVVTQEPSLTVSPGGTVTLTCRSSTGAVTTSNYANWFQQKPGQAPRTLIYGTNNRAPWTPARFSGSLLGGKAALTLLGAQPEDEAEYYCALWYSNHWVFGGGTKLTVL", "notes": "as for B1"}, "B7": {"name": "5Hg1-5Lg2 human Alya IgG1 (antibody, V domains shown)", "VH": "QVQLVQSGAEVKKPGASVKVSCKASGYTFTDYWMHWVRQAPGQGLEWMGAIDTSDSYTSYNQKFKGRVTMTRDTSTSTVYMELSSLRSEDTAVYYCARDYGNFYYYAMDYWGQGTLVTVSS", "VL": "QAVVTQEPSLTVSPGGTVTLTCRSSTGAVTTSNYANWFQQKPGQAPRTLIYGTNNRAPWTPARFSGSLLGGKAALTLLGAQPEDEAEYYCALWYSNHWVFGGGTKLTVL", "notes": "as for B1"}, "B8": {"name": "5Hg1-5Lg1 human Alya IgG1 (antibody, V domains shown)", "VH": "QVQLVQSGAEVKKPGASVKVSCKASGYTFTDYWMHWVRQAPGQGLEWMGAIDTSDSYTSYNQKFKGRVTMTRDTSTSTVYMELSSLRSEDTAVYYCARDYGNFYYYAMDYWGQGTLVTVSS", "VL": "QAVVTQEPSLTVSPGGTVTLTCRSSTGAVTTSNYANWFQQKPGQAPRTLIYGTNNRAPWTPARFSGSLLGGKAALTLSGAQPEDEAEYYCALWYSNHWVFGGGTKLTVL", "notes": "as for B1"}, "B9": {"name": "C0120906 human Alya IgG1 (antibody, V domains shown)", "VH": "EVQLVQSGPEVKKPGASVKISCKASGYKLNDPGVHGVSWVRQAPGQGLEWMGWISTLNGDTRYAQKFQGRVTMATDSSTSTIYMDLRSLKSDDTALYYCARDDYTAIFDFWGRGTLVTVSS", "VL": "QSVLTQPPSVSVAPGQTASITCGGSNIGSQSVHWYQQKPGQAPVLVVYDDSDRPSGIPERFSGSKSGNTASLILSRVEAGDEADYYCQVWDSSTDHHVFGTGTKVTVL", "notes": "Fully human, phage display derived; human IgG1 Alya constant (239iCys, S442C, EU); unconjugated"}, "B10": {"name": "mouse 5E3 expressed as human IgG1 Alya (antibody, V domains shown)", "VH": "QVQLQQPGAELVMPGASVKMSCKASGYTFTDYWMHWVKQRPGQGLEWIGAIDTSDSYTSYNQKFKGKATLTVDESSSTAYMQLSSLTSEDSAVYYCARDYGNFYYYAMDYWGQGTSVTVSS", "VL": "QAVVTQESALTTSPGETVTLTCRSSTGAVTTSNYANWVQEKPDHLFTGLIGGTNNRAPGVPARFSGSLIGDKAALTITGAQTEDEAIYFCALWYSNHWVFGGGTKLTVL", "notes": "Mouse variable domains on human IgG1 Alya constant (pEU1.22; 239iCys and S442C, EU numbering); purified, unconjugated; also called 5E3 IgG1 Alya"}, "B11": {"name": "C0120918 human Alya IgG1 (antibody, V domains shown)", "VH": "not shown", "VL": "SYELTQPPSVSVSPGQTARITCSGDALPKQYAYWYQQKPGQAPVLVIYKDSERPSGIPERFSGSSSGTTVTLTISGVQAEDEADYYCQSADSSGTWVFGGGTKVTVL", "notes": "as for B9"}, "B12": {"name": "C0120903 human Alya IgG1 (antibody, V domains shown)", "VH": "EVQLVQSGAEVKKPGSSMKVSCKASGGTFNSYTINWVRQAPGQGLEWVGGFIPIFGTADYAQKFHGRVAITADESMSTAYMELSSLRSEDTAVYYCARAPLGSEPFDYWGQGTMVTVSS", "VL": "SYVLTQPPSVSVAPGQTARITCGGNNIGSKSVHWYQQKPGQAPVLVVYDDSDRPSGIPERFSGSNSGNTATLTISRVEAGDEADYYCQVWDSSSDHLVFGGGTKLTVL", "notes": "as for B9"}, "B13": {"name": "C0120905 human Alya IgG1 (antibody, V domains shown)", "VH": "not shown", "VL": "NFMLTQPHSVSESPGKTVTISCTGSGGNIVDNFVQWHQQRPGSAPRTVIYEDDQRPSGVPDRFSASVDSSSNSGTLSISGLKTEDEADYYCQSYDGANRWVFGGGTKLTVL", "notes": "as for B9"}, "B14": {"name": "C0120917 human Alya IgG1 (antibody, V domains shown)", "VH": "not shown", "VL": "NFMLTQPHSVSESPGKTVTISCTASGDTLDNKYVNWYQVRPGSAPATLIFHYEERDSGVPDRFSGSFDASSNSASLTISGLQTADEADYFCQSYDSKRDNLVVFGGGTKVTVL", "notes": "as for B9"}, "B15": {"name": "C0120914 human Alya IgG1 (antibody, V domains shown)", "VH": "QVQLQESGPGLVKPSETLSLTCTVSGGSVSSGRYDWSWIRQPPGKGLEWIGHIYYTGITDYNPSLRSRVTISADKPKNQFSLKLNSVTAADTAVYYCARGPFFDPWGQGTMVTVSS", "VL": "QSVLTQPPSVSVAPGQTASLTCGANNIGSKSVQWYQQKPGQAPVLVVYDGSDRPSGIPDRFSGSSSENTATLTISRVEAGDEADYYCQLWDSVTDRPVFGGGTKVTVL", "notes": "as for B9"}},
  "data": [
    {"target": "T1, cynomolgus SEMA4A expressed on expi293 cells (UniProt ID G7NV79) (cynomolgus, UniProt Q9H3S1 33-761 (human entry))", "T1 construct": "Transient transfection in expi293 cells; also called cyno SEMA4A", "T1 chain": "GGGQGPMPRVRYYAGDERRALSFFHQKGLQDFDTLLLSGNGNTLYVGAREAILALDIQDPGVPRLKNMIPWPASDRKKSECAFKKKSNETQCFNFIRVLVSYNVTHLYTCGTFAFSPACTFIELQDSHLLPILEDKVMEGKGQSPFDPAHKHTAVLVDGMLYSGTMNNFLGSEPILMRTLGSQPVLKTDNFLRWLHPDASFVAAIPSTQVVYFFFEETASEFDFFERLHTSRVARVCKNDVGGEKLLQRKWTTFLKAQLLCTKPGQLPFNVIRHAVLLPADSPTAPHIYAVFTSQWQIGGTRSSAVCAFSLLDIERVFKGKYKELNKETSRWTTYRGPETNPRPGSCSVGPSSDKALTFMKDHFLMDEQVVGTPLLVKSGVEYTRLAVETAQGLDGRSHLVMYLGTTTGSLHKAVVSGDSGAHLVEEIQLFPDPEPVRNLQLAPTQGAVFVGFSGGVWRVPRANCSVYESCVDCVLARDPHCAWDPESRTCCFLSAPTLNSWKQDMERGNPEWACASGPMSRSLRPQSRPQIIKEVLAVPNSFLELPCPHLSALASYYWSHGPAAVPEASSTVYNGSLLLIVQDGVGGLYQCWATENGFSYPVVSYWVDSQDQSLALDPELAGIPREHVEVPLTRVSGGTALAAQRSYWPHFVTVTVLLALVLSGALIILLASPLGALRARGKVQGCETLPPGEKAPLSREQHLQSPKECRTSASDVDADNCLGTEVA", "assay": "Mirrorball direct binding, dilution series on expi293 cells transiently transfected with cyno SEMA4A, anti-human Alexa Fluor 647", "text": "(§1) Hits from the primary screening were re-formatted into the human Alya IgG1 vector and re-expressed and purified as described in section 4.1. In addition, a single clone was identified that contained an Asparagine deamidation motif (Asn Gly) within its VHCDR2. This potential sequence liability was de-risked by synthesising de novo two clonal variant VH genes (Asn Ala and Gln Gly) and cloning these sequences into the human Alya IgG1 expression vector. To determine the specificity profile of each purified human Alya IgG1, a dilution series was tested for binding to human SEMA4A, mouse SEMA4A, cyno SEMA4A, human SEMA4B and mock transfected cells (transient transfections set up in expi 293 cells.) The five assays employed methods described in section 2.3, using the appropriate cells and substituting the un-purified scFv periplasmic preparation with the recombinant human Alya IgG1 dilution series. Data was analysed as Count x median mean intensity (x FLU).", "values": [
      {"binder": "B1", "binding result": "binds"},
      {"binder": "B2", "binding result": "binds"},
      {"binder": "B3", "binding result": "binds"},
      {"binder": "B4", "binding result": "binds"},
      {"binder": "B5", "binding result": "binds"},
      {"binder": "B6", "binding result": "binds"},
      {"binder": "B7", "binding result": "binds"},
      {"binder": "B8", "binding result": "binds"}
    ]},
    {"target": "T2, human SEMA4B expressed on expi293 cells (human, UniProt Q9NPR2 44-837)", "T2 construct": "whole, on cells", "T2 sequence (looked up)": "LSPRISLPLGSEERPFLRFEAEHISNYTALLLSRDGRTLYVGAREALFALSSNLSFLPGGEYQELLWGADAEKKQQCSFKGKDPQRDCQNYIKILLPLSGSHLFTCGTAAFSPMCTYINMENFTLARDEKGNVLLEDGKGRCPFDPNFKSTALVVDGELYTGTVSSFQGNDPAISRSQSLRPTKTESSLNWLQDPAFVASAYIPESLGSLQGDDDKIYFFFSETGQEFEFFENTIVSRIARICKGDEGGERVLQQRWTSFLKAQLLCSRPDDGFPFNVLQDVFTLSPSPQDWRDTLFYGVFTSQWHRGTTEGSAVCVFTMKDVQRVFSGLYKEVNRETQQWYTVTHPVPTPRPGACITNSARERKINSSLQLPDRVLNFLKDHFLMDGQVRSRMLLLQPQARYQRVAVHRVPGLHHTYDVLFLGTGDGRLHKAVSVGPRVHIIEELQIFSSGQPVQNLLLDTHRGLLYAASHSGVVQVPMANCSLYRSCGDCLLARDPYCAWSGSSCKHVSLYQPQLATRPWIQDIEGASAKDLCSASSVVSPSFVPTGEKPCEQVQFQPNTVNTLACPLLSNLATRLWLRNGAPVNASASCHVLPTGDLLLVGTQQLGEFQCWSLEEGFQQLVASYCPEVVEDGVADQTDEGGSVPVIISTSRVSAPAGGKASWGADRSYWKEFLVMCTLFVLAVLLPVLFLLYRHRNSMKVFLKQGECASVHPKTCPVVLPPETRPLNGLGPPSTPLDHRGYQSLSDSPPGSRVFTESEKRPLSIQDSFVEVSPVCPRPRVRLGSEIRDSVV", "assay": "Mirrorball direct binding, dilution series on expi293 cells transiently transfected with human SEMA4B, anti-human Alexa Fluor 647", "text": "as §1", "values": [
      {"binder": "B9", "binding result": "no binding (tested: log (M) -8 (1e-8 M))"},
      {"binder": "B10", "binding result": "no binding (tested: log (M) -8 (1e-8 M))"},
      {"binder": "B11", "binding result": "no binding (tested: log (M) -8 (1e-8 M))"},
      {"binder": "B12", "binding result": "no binding (tested: log (M) -8 (1e-8 M))"},
      {"binder": "B13", "binding result": "no binding (tested: log (M) -8 (1e-8 M))"},
      {"binder": "B14", "binding result": "no binding (tested: log (M) -8 (1e-8 M))"},
      {"binder": "B15", "binding result": "no binding (tested: log (M) -8 (1e-8 M))"}
    ]}
  ]
}
